Earlier results on one substance are cited in article PMC3485249.

This data set has as its target Pygopus PHD PHD (Homo sapiens) (UniProt Q9Y3Y4).

For Pygopus PHD PHD (from UniProt Q9Y3Y4), the Kd is 1000 nM.

The term Kd denotes the concentration at which binding is half-saturated.
